Among the data in patent CN107773755A are 活性 (Binding elisa, % relative to the reference), 生物活性 (Binding elisa, % relative to the reference) and 结合活性 (Binding elisa, % relative to the reference) values, retold here.

The target in assay [1] is 抗体BA03-A. Nature of the assay: binding ELISA on coated BA03-A, relative activity vs reference; formulation F7 after 8 weeks at 40 C. (An ELISA detects its analyte on a solid surface through an enzyme-linked reagent.)
Assay [2] concerns the target 抗体BA03-A. The experiment in a line: binding ELISA on coated BA03-A, relative activity vs reference; formulation F8 after 8 weeks at 40 C.
The target of assay [3] is 抗体BA03-A. The experiment in a line: binding ELISA on coated BA03-A, relative activity vs reference; formulation F3 after 8 weeks at 40 C.
The target in assay [4] is 抗体BA03-A. The experiment in a line: binding ELISA on coated BA03-A, relative activity vs reference; formulations F1-F11 at T0.
The target in assay [5] is 抗体BA03-A. Nature of the assay: binding ELISA on coated BA03-A, relative activity vs reference; formulations after 4 weeks at 40 C.
For assay [6], the target named is 抗体BA03-A. Nature of the assay: binding ELISA on coated BA03-A, relative activity vs reference; formulations after 8 weeks at 2-8 C.

B1: 抗体BA03 (重组人源化抗表皮生长因子受体单克隆抗体) (antibody, V domains shown)
VH: QVQLQESGPGLVKPSETLSLTCTVSGFSLSNYDVHWVRQAPGKGLEWLGVIWSGGNTDYNTPFTSRLTISVDTSKNQFSLKLSSVTAADTAVYYCARALDYYDYEFAYWGQGTLVTVSS
VL: EIVLTQSPDFQSVTPKEKVTITCRASQSIGTNIHWYQQKPDQSPKLLIKYASESISGIPSRFSGSGSGTDFTLTINSLEAEDAATYYCQQNNEWPTSFGQGTKLEIK
Consider B1, for which the 活性 (Binding elisa, % relative to the reference) is 55.2% in assay [1], 91.7% in assay [2] and 89.7% in assay [3]. For the same molecule, the 生物活性 (Binding elisa, % relative to the reference) in assay [4] fell in the range of 97.1 to 105%; in assay [5] it was 47.3 to 102%. The 结合活性 (Binding elisa, % relative to the reference) in assay [6] lay in the range of 93.3 to 111%.
